The text below walks through data of patent US20240270826A1 (NATIONAL RESEARCH COUNCIL OF CANADA, published 2024).

The term IC50 denotes the concentration needed to halve the response being measured. Low readings indicate inhibition by little substance, high ones a need for much substance.

B1: NRCoV2-04 VHH-Fc (Fc fusion)
chain: AVQLVDSGGGLVQPGGSLRLSCAASGSPFSNVVMAWYRQAPGKQRERVAFISGGGIADYIMSVKGRFTISRDNAKNTVYLQMNSLKPEDTAVYYCWSSYESTWGQGTQVTVSS
notes: bivalent VHH-Fc
B2: NRCoV2-07 VHH-Fc (Fc fusion)
chain: QVQLVQSGGGLVQPGGSLRLSCAASGVTLDYYAIGWFRQAPGKEREAVSCISSNGRRNHYVASVRGRFTISRDNAKSTVYLQMNSLKPEDTAVYYCAAVQDVHGDNYYCTSPNEYNVWGQGTQVTVSS
notes: bivalent VHH-Fc
B3: NRCoV2-1d VHH-Fc (Fc fusion)
chain: EVQLVESGGGSVQPGGSLRLSCAASGSTLDYYAIGWFRQAPGKEREWVSSVSSSDGNTLYADSVKGRFTISRDNAKNTVYLQMNSLKAEDTAVYVCAADYSMRPFAVGRWHRDYEYWGQGTQVTVSS
notes: bivalent VHH-Fc
B4: NRCoV2-10 VHH-Fc (Fc fusion)
chain: QLQLQESGGGLVQPGGSLTLSCAASGNTFSRSNMHWYRQAPGAQREWVAAISSRGISTYAYSAKGRFTISRDNAKNTVSLQMNSLKPEDTAVYYCYAADDLGDYWGQGTQVTVSS
notes: bivalent VHH-Fc
B5: NRCoV2-12 VHH-Fc (Fc fusion)
chain: EVQLQQSGGGLVQAGGSLRLSCAASGRTFRNYVMGWFRQAPQAPGKDHEFVAAISWGGTEIYYADSVKGRFTISRDNAKNTVYLQMNSLKPEDTAVYYCAADRGLSYYYTRTTEYNYWGQGTQVTVSS
notes: bivalent VHH-Fc
B6: NRCoV2-20 VHH-Fc (Fc fusion)
chain: EVQLQQSGGGLVQPGGSLRLSCAASGRTFSNYVVGWFRQAPQAPGKDHEFVAVISGSDTETYYADSVKGRFTISRDNAKNTVYLQMNSLKPEDTAVYYCAADRGMSYYYTRATEYYYWGQGTQVTVSS
notes: bivalent VHH-Fc
B7: NRCoV2-MRed05 VHH-Fc (Fc fusion)
chain: EVQLVESGGGLVQPGGSLRLSCAASGFTLDYYAIGWFRQAPGKEREGVSCISSSDGSTLYADSVKGRFTISRDNAKNTVYLQMNSLKPEDTAVYYCATGPQAYYSGSYYFQCPQAGMDYWGKGTQVTVSS
notes: bivalent VHH-Fc
B8: NRCoV2-05 VHH-Fc (Fc fusion)
chain: EVKLVQSGGGLVQPGGSLRLSCAASGFIFSNYAMNWVRQAPGKGLEWVSGINSGGGDTRYADSVKGRFTVSRDNAKNTLYLQMNSLKPEDTGVYYCSKGPVSSYYGSGYDYRGQGTQVTVSS
notes: bivalent VHH-Fc
B9: NRCoV2-18 VHH-Fc (Fc fusion)
chain: EVQLVESGGGLVQAGGSLRLSCVASGITISGYNMAWWRQTRGKQTERVAFINSGGSTTYSDSVKGRFTISRDNGKNTAYLQMNSLNAEDTADYFCSLHTSHDYWGQGTQVTVSS
notes: bivalent VHH-Fc
B10: NRCoV2-SR13 VHH-Fc (Fc fusion)
chain: EVQLVESGGGLVTTGGSLRLSCATSGSRFGSKHMAWYRQAPGKQRDLVAAISSGGSTHYGSSVKGRFTISRDNAKSTVYLQMNSLNPEDTAVFYCNMGGWDYRSNTYIPGSRSDYWGQGTQVTVSS
notes: bivalent VHH-Fc
B11: NRCoV2-15 VHH-Fc (Fc fusion)
chain: EVQLVSSGGGLVEAGGSLRLSCIASGSTSGRNTMGWFRQAPGKQREWVAIVSTSGATNYAGSVKGRFTLSRDNAKNAVYLQMNNLKPEDTAVYYCYAAYGGGGDYWGQGTQVTVSS
notes: bivalent VHH-Fc
B12: NRCoV2-14 VHH-Fc (Fc fusion)
chain: EVQLVSSGGGLVQAGGSLRLSCEASGTTFSHYAVGWYRQAPGKQREWVASISVFGSTTYGGSVAGRFTISRDNDKNTVDLQMNSLKPEDTAVYYCHAVNADIGGDYWGQGTQVTVSS
notes: bivalent VHH-Fc
B13: NRCoV2-17 VHH-Fc (Fc fusion)
chain: EVQLQQSGGGLVQTGGSLRLSCAAAGSPFSQLAMSWYRQISGKERAWVASISPTGNRSYSKIAKGRFTISRDNAKNTVTLQMTSLKPEDTAAYICQAANVNGGDYWGQGTQVTVSS
notes: bivalent VHH-Fc
B14: NRCoV2-02 VHH-Fc (Fc fusion)
chain: EVQLVESGGGLVQAGGSLRLSCAASGFTFSNYAMNWVRQAPGKGLEWVSGISGRGDDTRYADSVKGRFTISRDNAKNTLFLQMRSLRPEDTGVYRCTKGPDLYYFGSGYSDRGQGTQVTVSS
notes: bivalent VHH-Fc
B15: NRCoV2-SR01 VHH-Fc (Fc fusion)
chain: EVQLVQSGGGSVQAGGSLRLSCVASGFTFDNYAIGWFRQAPGKEREGVSCISGNGGVTIYADSVKGRFTISRDNAKNLVYLQMNSLKPEDTAVYYCAATGIRSTWSVYGCSRLAGPYDYWGQGTQVTVSS
notes: bivalent VHH-Fc
B16: NRCoV2-11 VHH-Fc (Fc fusion)
chain: EVQLVSSGGGLVQPGGSLRLSCAASGSSLDSYSVSWFRQAPGKEREWISFISRYYSSTYYTDSVKGRFTTSRDGDQKTVHLQMNSLKPEDTAVYYCAARSRDFSSPFSATDTYTSWGQGTQVTVSS
notes: bivalent VHH-Fc
B17: NRCoV2-MRed04 VHH-Fc (Fc fusion)
chain: EVQLVESGGGLVQPGRSLRLSCAASGNSFSISTMGWFRQAPGKERELVASIWSDTTTSYADSVKGRFTISTDNTRTKVYLQMSSLNPEDTAVYYCAADRGFVVRGQYDYWGQGTQVTVSS
notes: bivalent VHH-Fc
B18: NRCoV2-SR02 VHH-Fc (Fc fusion)
chain: EVQLVDSGGGLVQAGGSLRLSCTASEFTLNYYSIGWFRQSPGKEREGVSCIRYSGGGIDYADSVKGRFTISRDNAKNTVYLTMNSLKPEDTAVYYCAADRLYSRACPTAGGRNYWGQGTQVTVSS
notes: bivalent VHH-Fc
B19: NRCoV2-04 VHH-Fc (Fc fusion)
chain: AVQLVDSGGGLVQPGGSLRLSCAASGSPFSNVVMAWYRQAPGKQRERVAFISGGGIADYIMSVKGRFTISRDNAKNTVYLQMNSLKPEDTAVYYCWSSYESTWGQGTQVTVSS
notes: bivalent VHH-Fc
B20: NRCoV2-10 VHH-Fc (Fc fusion)
chain: QLQLQESGGGLVQPGGSLTLSCAASGNTFSRSNMHWYRQAPGAQREWVAAISSRGISTYAYSAKGRFTISRDNAKNTVSLQMNSLKPEDTAVYYCYAADDLGDYWGQGTQVTVSS
notes: bivalent VHH-Fc
B21: NRCoV2-20 VHH-Fc (Fc fusion)
chain: EVQLQQSGGGLVQPGGSLRLSCAASGRTFSNYVVGWFRQAPQAPGKDHEFVAVISGSDTETYYADSVKGRFTISRDNAKNTVYLQMNSLKPEDTAVYYCAADRGMSYYYTRATEYYYWGQGTQVTVSS
notes: bivalent VHH-Fc
B22: NRCoV2-12 VHH-Fc (Fc fusion)
chain: EVQLQQSGGGLVQAGGSLRLSCAASGRTFRNYVMGWFRQAPQAPGKDHEFVAAISWGGTEIYYADSVKGRFTISRDNAKNTVYLQMNSLKPEDTAVYYCAADRGLSYYYTRTTEYNYWGQGTQVTVSS
notes: bivalent VHH-Fc
B23: NRCoV2-15 VHH-Fc (Fc fusion)
chain: EVQLVSSGGGLVEAGGSLRLSCIASGSTSGRNTMGWFRQAPGKQREWVAIVSTSGATNYAGSVKGRFTLSRDNAKNAVYLQMNNLKPEDTAVYYCYAAYGGGGDYWGQGTQVTVSS
notes: bivalent VHH-Fc
B24: NRCoV2-14 VHH-Fc (Fc fusion)
chain: EVQLVSSGGGLVQAGGSLRLSCEASGTTFSHYAVGWYRQAPGKQREWVASISVFGSTTYGGSVAGRFTISRDNDKNTVDLQMNSLKPEDTAVYYCHAVNADIGGDYWGQGTQVTVSS
notes: bivalent VHH-Fc
B25: NRCoV2-17 VHH-Fc (Fc fusion)
chain: EVQLQQSGGGLVQTGGSLRLSCAAAGSPFSQLAMSWYRQISGKERAWVASISPTGNRSYSKIAKGRFTISRDNAKNTVTLQMTSLKPEDTAAYICQAANVNGGDYWGQGTQVTVSS
notes: bivalent VHH-Fc
B26: NRCoV2-SR01 VHH-Fc (Fc fusion)
chain: EVQLVQSGGGSVQAGGSLRLSCVASGFTFDNYAIGWFRQAPGKEREGVSCISGNGGVTIYADSVKGRFTISRDNAKNLVYLQMNSLKPEDTAVYYCAATGIRSTWSVYGCSRLAGPYDYWGQGTQVTVSS
notes: bivalent VHH-Fc
B27: NRCoV2-11 VHH-Fc (Fc fusion)
chain: EVQLVSSGGGLVQPGGSLRLSCAASGSSLDSYSVSWFRQAPGKEREWISFISRYYSSTYYTDSVKGRFTTSRDGDQKTVHLQMNSLKPEDTAVYYCAARSRDFSSPFSATDTYTSWGQGTQVTVSS
notes: bivalent VHH-Fc

The target of one assay is SARS-CoV-2 spike protein S on live virus, Alpha variant (SARS-CoV-2 (Alpha variant), UniProt P0DTC2 14-1273). Description: cell-based or functional assay.
As to B1, the “LVNA IC50” value amounted to 2.3 nM.
For B2, the “LVNA IC50” value came out at 0.42 nM.
Same read-out and setting: in the case of B3 it was 0.37 nM.
For the molecule B4, the “LVNA IC50” value is 0.47 nM.
For B5, the “LVNA IC50” value came to 1.35 nM.
For the molecule B6, the “LVNA IC50” value was determined as 1.94 nM.
The same measure, in the same setting: in the case of B7 it was 0.13 nM.
Regarding B8, the “LVNA IC50” value is 0.03 nM.
Same read-out and setting: in the case of B9 it was 2.82 nM; in that of B10, about 100 nM; in that of B11, 0.16 nM.
As for B12, the “LVNA IC50” value was determined as 0.88 nM.
The same measure, in the same setting: to B13 belongs 0.61 nM.
On the same count and under the same terms, to B14 belongs 0.09 nM; to B15, 3.77 nM; to B16, 2.3 nM.
On the same count and under the same terms, in the case of B17 it was 4.5 nM.
With B18, the “LVNA IC50” value is 9.05 nM.

A further assay deals with Human SARS-CoV-2 Omicron (B.1.1.529) S (SARS-CoV-2 (Omicron variant)). Description: flow cytometry SVNA: VHH-Fc inhibits S binding to ACE2 on Vero E6 cells.
B19 registered an IC50 of 18.4 nM.
Still for that read-out and setting: in the case of B20 it was 4.3 nM; in that of B21, 13.1 nM; in that of B22, 17.2 nM.
The same measure, in the same setting: in the case of B23 it was 3 nM; in that of B24, 5.2 nM.
The molecule B25 gave an IC50 of 3.4 nM. Against the preceding molecule, the IC50 is about 1.5-fold lower.
The same measure, in the same setting: in the case of B26 it was 4.4 nM.
On to B27, for which the IC50 is 8.8 nM.
